Molecular target: T1, wild-type NaV1.5 (Homo sapiens, UniProt Q14524)
T1 construct: expressed in transfected cells; host or cells: HEK293 (ATCC CRL1573)
Test: Phosphorylation-dependent late Na current, wild-type NaV1.5 co-expressed with PKAcat or CaMKIIT286D in HEK293 cells
Type: cell-based
Description: As such, we sought to determine whether “protective” FHF variants may inhibit phosphorylation-dependent INa,L. To maximally upregulate INa,L, we co-expressed wild-type NaV1.5 with either (1) the catalytic Cα subunit of protein kinase A (PKA) or (2) a constitutively-active Ca^2+/CaM dependent kinase II (CaMKIIT286D) mutant in HEK293 cells. This maneuver likely triggers runaway phosphorylation of NaV1.5 and thereby furnishes a baseline to discern any potential FHF-dependent change. As expected, we observed an ˜5 fold increase in INa,L in the presence of the PKA Cα subunit (FIGS. 3D and 3E), and a 3-fold increase with CaMKIIT286D (FIGS. 3E and 11B). […] Encouraged by these findings, we dissected the functional role of this modulation in native cardiomyocytes (FIGS. 3F and 3G).
The human NaV1.5 channel corresponds to clone M77235.1 (GenBank) and is subcloned into pGW 1 vector with HindIII and SaII. To facilitate construction of channelopathic mutations in the channel carboxy-terminus, we introduced silent mutations into NaV1.5 to introduce an NruI cutting site near the channel carboxy-terminus (5329-gtggccacg-5337 into 5329-gtCgcGacg-5337). Subsequently, we used overlap-extension PCR and ligated the PCR product into NaV1.5/pGW1 using NruI and XbaI restriction sites (mutations: E1784K, S1904L, IQ/AA, and Q1909R). […]

T1 sequence (Q14524 whole entry): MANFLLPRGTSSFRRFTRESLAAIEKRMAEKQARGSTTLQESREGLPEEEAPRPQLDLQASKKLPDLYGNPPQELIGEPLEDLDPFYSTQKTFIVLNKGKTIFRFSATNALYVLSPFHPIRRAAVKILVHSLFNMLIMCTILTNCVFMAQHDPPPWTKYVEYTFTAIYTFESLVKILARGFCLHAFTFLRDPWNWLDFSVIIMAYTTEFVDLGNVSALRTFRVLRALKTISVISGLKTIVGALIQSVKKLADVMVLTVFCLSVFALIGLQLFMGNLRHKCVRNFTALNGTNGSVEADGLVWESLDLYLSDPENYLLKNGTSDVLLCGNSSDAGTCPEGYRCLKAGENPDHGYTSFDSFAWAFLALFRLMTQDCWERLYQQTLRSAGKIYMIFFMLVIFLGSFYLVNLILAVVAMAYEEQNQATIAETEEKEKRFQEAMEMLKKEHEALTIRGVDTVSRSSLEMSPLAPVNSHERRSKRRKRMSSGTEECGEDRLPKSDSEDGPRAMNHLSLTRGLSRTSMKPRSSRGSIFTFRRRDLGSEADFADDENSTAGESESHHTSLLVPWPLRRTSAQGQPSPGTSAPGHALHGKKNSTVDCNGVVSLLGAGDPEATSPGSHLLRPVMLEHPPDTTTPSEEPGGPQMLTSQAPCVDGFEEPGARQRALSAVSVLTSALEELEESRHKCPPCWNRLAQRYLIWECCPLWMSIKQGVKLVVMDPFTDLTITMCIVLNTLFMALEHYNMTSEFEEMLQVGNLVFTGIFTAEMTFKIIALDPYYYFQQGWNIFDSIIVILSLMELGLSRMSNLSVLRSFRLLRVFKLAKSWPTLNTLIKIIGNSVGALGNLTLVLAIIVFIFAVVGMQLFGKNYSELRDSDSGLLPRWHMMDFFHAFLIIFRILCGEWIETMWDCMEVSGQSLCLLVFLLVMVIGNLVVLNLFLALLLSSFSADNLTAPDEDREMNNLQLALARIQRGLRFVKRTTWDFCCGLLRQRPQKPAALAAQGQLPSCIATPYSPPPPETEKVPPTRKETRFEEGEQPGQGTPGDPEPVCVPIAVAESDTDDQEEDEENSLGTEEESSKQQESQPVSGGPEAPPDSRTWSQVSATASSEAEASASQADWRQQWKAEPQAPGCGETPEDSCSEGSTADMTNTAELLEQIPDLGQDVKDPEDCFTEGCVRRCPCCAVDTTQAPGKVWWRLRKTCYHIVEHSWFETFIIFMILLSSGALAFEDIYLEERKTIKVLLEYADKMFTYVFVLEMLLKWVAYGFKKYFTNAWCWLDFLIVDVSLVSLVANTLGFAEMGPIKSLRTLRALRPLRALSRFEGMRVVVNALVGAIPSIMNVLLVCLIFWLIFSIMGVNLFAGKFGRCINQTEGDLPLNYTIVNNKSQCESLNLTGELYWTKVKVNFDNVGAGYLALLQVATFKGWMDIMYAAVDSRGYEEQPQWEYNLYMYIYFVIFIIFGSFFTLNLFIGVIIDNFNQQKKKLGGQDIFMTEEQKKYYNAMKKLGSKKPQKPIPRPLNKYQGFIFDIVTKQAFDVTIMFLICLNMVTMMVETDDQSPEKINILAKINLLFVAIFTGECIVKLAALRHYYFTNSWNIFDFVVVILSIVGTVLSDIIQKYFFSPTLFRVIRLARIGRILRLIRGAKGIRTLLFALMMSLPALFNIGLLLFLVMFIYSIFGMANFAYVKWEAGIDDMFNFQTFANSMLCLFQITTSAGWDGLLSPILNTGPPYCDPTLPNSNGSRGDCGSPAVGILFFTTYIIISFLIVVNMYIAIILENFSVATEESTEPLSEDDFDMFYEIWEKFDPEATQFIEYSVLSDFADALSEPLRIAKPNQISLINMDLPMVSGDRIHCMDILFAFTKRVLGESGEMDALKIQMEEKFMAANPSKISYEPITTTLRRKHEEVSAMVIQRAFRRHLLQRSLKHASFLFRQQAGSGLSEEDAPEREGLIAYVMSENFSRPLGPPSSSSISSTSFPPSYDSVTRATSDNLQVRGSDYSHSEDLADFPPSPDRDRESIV

## FixR: minimal 39-amino-acid FHF1A amino-terminal effector domain, MAAAIASSLIRQKRQARESNSDRVSASKRRSSPSKDGRS (SEQ ID NO: 4), expressed as peptide
INa,L upregulated by CaMKIIT286D
  change in phosphorylation-dependent INa,L: reduces INa,L
INa,L upregulated by PKA catalytic subunit (PKAcat)
  change in phosphorylation-dependent INa,L: reduces INa,L
